Measured values taken from article PMC5662663 (Scientific Reports, 2017).

B1: Nanobody Nb17 (VHH)
VHH: QRQLVESGGGLVQAGGSLRLSCAASGRTFSSYVMGWFRQAPGKEREAVASISWSGGSTYYADSVKGRFTISRDNAKNTVYLQMNSLKPEDTAVYYCAADHRTYYTGTYSPDYWGKGTPVTVSS
notes: Alpaca nanobody selected by phage display against BtuF; source: E. coli WK6, periplasmic extract, purified (IMAC, PD10 desalting)
B2: Nanobody Nb7 (VHH)
VHH: QGQLVESGGGLVQPGGSLRLSCVASGFDFSNYTMSWVRQAPGKGLEWVSDISSGGGSTYYADSVKGRFTISRDNAKNTVYLQMNTLKPEDTAVYLCTELGVAPPGQGTRVTVSS
notes: as for B1
B3: Nanobody Nb9 (VHH)
VHH: QMQLVESGGGLVQPGGSLRLSCAAPESTLDDYAIGWFRQAPGKEREGVSCIGSSGDSTNYADSVKGRFTVSRDNAKNTVYLQMNDLRPEDTAVYYCAAAHRIFGGCLVIHSSGYVSWGQGTPVTVSS
notes: Alpaca nanobody selected by phage display against BtuF; additional disulfide bond between C72 (CDR2) and C128 (CDR3); source: E. coli WK6, periplasmic extract, purified (IMAC, PD10 desalting)
B4: Nanobody Nb15 (VHH)
VHH: QVQLVESGGGLVQPGGSLRLSCTASEATLDDYAIGWFRQAPGKEREGVSCIGSSGDVTHYADSVKGRFTISRDNAKNTGYLQLNNLRPEDTAVYYCAAAHRILGGCLVIHSSDYTSSSKGTRVTVSS
notes: as for B1
B5: Nanobody Nb10 (VHH)
VHH: QLQLVESGGGLVQPGGSLRLSCAASGFTLDYYAIGWFRQAPGKEREGVSCISSSGGSTNYADSVKGRFTISRDNAKNTVYLQMNSLKPEDTAVYYCAADYAGRGFCAGLYDYWSQGTPVTVSS
B6: Nanobody Nb14 (VHH)
VHH: QLQLVESGGGLVQPGGSLRLSCAASGFTFSSVAMSWVRQAPGKGLEWVSDINSVGSTYYADSVKGRFTISRDNAKNTVYLQMNSLKPEDTAVYYCVPLGERPEIHGGKGTPVTVSS

molecular target: T1, BtuF, periplasmic substrate-binding protein of the Escherichia coli vitamin B12 transporter BtuCD-F, tag-less (Escherichia coli (K12 sequence), UniProt P37028); test: pull-down; His-tagged nanobodies immobilized on Ni-NTA, 1.5 molar excess of tagless BtuF, 1.5 hours at 4 °C; wash 50 mM Tris-HCl pH 7.5, 250 mM NaCl, 10% glycerol, 20 mM imidazole; elution 500 mM imidazole; SDS-PAGE; no Cbl; conditions: both partners purified
T1 construct: the assays name the protein tag-less; also called tag-less BtuF; tagless BtuF; source: prepared as described previously [6,18], purified; not shown: His-tag (3C cleavable), C-terminal, cleaved

B1: binds.
B2: binds.
B3: binds.
B4: binds.

molecular target: Fluorescein-labeled variant of BtuF (BtuF_(fluo)) (Escherichia coli) (UniProt P37028); test: fluorescence kinetics of nanobody displacement by Cbl; 10 nM BtuF_(fluo) equilibrated with 10 nM nanobody, then 1, 5 or 10 μM Cbl; slow phase of fluorescence decrease at 520 nm gives koff; kon calculated as koff/Ki; 50 mM Tris-HCl pH 7.5, 200 mM NaCl, 0.001% Tween 20, 23 °C; conditions: not given

B1 and B2 are within 1.5-fold of each other in koff: 0.0025 s⁻¹ for the first, 0.0019 s⁻¹ for the second.

Binder B5 has a koff of 0.0071 s⁻¹.

First: B1
Second: B2
The kon of the first is 1.7-fold lower: 46000 M⁻¹ s⁻¹ for the first, 79000 M⁻¹ s⁻¹ for the second.

B5 showed a kon of 1.2e+06 M⁻¹ s⁻¹.

Going from B1 to B2, the occupancy of BtuF (fluo) with nanobody (10 nM each) rises from 14% to 30%.

Binder B5 has an occupancy of BtuF (fluo) with nanobody (10 nM each) of 53%.

molecular target: Fluorescein-labeled variant of BtuF (BtuF_(fluo)) (Escherichia coli) (UniProt P37028); test: other fluorescence titration; equilibrium competition in solution: 5 nM BtuF_(fluo), Cbl 0.3 nM to 10 μM at a constant nanobody concentration (5 μM Nb14; 1 μM Nb7, Nb15, Nb17; 100 nM Nb9, Nb10); 50 mM Tris-HCl pH 7.5, 200 mM NaCl, 0.001% Tween 20, 23 °C; Ki fitted with Dynafit with Kd of Cbl 8.1 nM as input; conditions: not given

First: B6
Second: B1
The Ki of the first is 14-fold higher: 770 nM for the first, 54 nM for the second. The second binds more tightly here.

First: B2
Second: B5
The Ki of the first is 4-fold higher: 24 nM for the first, 6 nM for the second.

In the case of B4, the Ki is reported as 79 nM.
